Measured values published in US12187807B2, “Antibody molecules to C5AR1 and uses thereof” (Visterra, Inc., priority 2020, dated 2025).

T1: C5aR1 (Homo sapiens, UniProt P21730)
T1 sequence (P21730 1-350): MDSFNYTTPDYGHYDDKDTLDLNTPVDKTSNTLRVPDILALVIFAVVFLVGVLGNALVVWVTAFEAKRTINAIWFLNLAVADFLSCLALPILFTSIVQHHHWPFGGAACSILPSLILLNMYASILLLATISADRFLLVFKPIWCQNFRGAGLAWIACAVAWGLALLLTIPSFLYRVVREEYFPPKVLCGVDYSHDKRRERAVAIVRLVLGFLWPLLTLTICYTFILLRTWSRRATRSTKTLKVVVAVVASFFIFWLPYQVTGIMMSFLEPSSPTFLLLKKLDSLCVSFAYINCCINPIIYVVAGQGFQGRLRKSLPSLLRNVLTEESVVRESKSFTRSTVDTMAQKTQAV

T2: biotinylated peptide representing the N-terminus of C5aR1 without tyrosine sulfation (Homo sapiens, UniProt P21730)
T2 construct: the N-terminus without tyrosine sulfation
T2 sequence (P21730 1-37 limits assumed): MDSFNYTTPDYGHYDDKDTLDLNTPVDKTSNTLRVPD

T3: C5aR1 on human neutrophils (Homo sapiens, UniProt P21730)
T3 construct: neutrophils isolated from whole blood; host or cells: human neutrophils (cryopreserved, or isolated from whole blood)
T3 sequence (P21730 1-350): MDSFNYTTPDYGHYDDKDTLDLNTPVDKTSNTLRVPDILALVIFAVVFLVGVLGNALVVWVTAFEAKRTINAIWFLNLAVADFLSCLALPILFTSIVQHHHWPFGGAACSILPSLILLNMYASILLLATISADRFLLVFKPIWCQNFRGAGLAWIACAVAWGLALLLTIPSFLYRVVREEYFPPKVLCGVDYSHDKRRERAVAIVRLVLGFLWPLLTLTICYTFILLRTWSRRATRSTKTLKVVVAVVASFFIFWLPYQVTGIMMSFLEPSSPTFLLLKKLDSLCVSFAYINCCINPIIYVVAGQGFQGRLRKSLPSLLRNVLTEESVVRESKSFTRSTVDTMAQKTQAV

T4: C5aR1 mutants (N-terminus, ECL1, ECL2, ECL3) (Homo sapiens, UniProt P21730, K279N/Y11F)
T4 sequence (P21730 with tags, fused parts or gaps Y11F/K279N): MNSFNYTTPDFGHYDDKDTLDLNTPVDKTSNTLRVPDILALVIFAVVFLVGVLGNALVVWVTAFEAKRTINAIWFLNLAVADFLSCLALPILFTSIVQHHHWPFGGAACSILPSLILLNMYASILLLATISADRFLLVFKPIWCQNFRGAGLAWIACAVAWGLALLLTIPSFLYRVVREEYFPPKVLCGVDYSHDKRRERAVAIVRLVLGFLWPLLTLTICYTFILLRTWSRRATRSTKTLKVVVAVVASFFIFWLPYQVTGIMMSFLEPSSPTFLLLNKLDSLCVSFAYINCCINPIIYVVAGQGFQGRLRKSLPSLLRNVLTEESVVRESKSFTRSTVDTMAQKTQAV


Legend:
C5aR1 = biological target: T1, C5aR1; assay: GeneBLAzer reporter assay (C5aR1 mediated Gα signaling); format: cell-based; parameters: host or cells: vendor's C5aR1 GeneBLAzer reporter cell line; details: for antagonism of C5aR1 compared to reference antibodies or to Avacopan: 10 nM of antibody, 10 nM C5a; for inhibition of C5aR1 signaling / activity in the GeneBLAzer assay: C5a dose response with varying concentrations of antibody; for inhibition of C5aR1 mediated Gα signaling in the presence of C5-alpha: U937 cells, increasing concentrations of C5-alpha, FIGS. 20A-20G
Protocol: In addition, a GeneBLAzer reporter assay was used, which mimics the calcium flux assay. The GeneBLAzer assay kit and C5aR1 cell line were commercially available from Thermo Fisher (Catalog #K1544). The assay was performed as recommend by the manufacturer. Briefly, antibodies or antagonists were incubated for 30 minutes at 37° C. C5a was then added to the cells and incubated at 37° C. for an additional 4-5 hours. Beta-lactamase substrate was then added and incubated for 2 hours at room temperature. Fluorescent measurements for each well with an excitation/emission of 409/460 (blue) and 409/530 (green) were measured. An increase in the blue to green ratio was proportional to C5aR1 activation and was used to calculate the percent of activation for the cells in each well.
Exemplary anti-C5aR1 antibodies generated as described in Example 1 were screened for antagonist activity against human C5aR1 using the GeneBLAzer assay, as described in Example 1. Briefly, cells were pre-incubated with 10 nM of antibody followed by addition of 10 nM C5a. The engineered induction of beta-lactamase expression by C5a-C5aR1 signaling was measured using the BLA substrate and calculating the ratio of blue and green fluorescence.

[1] = biological target: T2, biotinylated peptide representing the N-terminus of C5aR1 without tyrosine sulfation; assay: Epitope mapping by biolayer interferometry, N-terminus without tyrosine sulfation; format: binding; parameters: key: “+” indicates binding to the listed peptide; “−” indicates lack of binding to the listed peptide; details: 10 μg/mL of antibody, biotinylated peptide on streptavidin biosensor
Protocol: The epitope mapping was undertaken, using biolayer interferometry, on a series of exemplary anti-C5aR1 antibodies generated as described in Example 1. Briefly, for each antibody, biotinylated peptides representing ECL2, the N-terminus with tyrosine sulfation, and the N-terminus without tyrosine sulfation, were immobilized in a streptavidin biosensor. Subsequently, the biosensor was exposed to 10 μg/mL of antibody to detect antibody binding to the immobilized peptide. The results of the epitope mapping study are shown in Table 4 (“+” indicates binding to the listed peptide; “−” indicates lack of binding to the listed peptide).

[2] = biological target: T3, C5aR1 on human neutrophils; assay: Cell surface binding (flow cytometry), human neutrophils; details: half-log titrations 10^−7.5 to 10^−12 M, vs isotype controls
Protocol: Follow up screening to ensure specificity was performed by measuring cell surface binding to cells expressing, for example, human C5aR1, human C5aR2, mouse C5aR1, and control cells that were mock transfected. Briefly, cell surface binding was performed on various C5aR1 expressing cell lines (transiently expressed Expi293 cells, stable C5aR1-U937 cells, and neutrophils isolated from whole blood). Briefly, a titration of antibody diluted in flow buffer (1×PBS with 2% fetal bovine serum) was incubated with cells for 1 hour at 4° C. Cells were washed twice with flow buffer. Anti-human-APC secondary antibody was diluted 1:400 in flow buffer and incubated with cells for 30 minutes. Cells were washed twice with flow buffer and resuspended in 100 μL of flow buffer. Fluorescence was measured using the iQue Screen Plus flow cytometer.
Exemplary anti-C5aR1 antibodies generated as described in Example 1 were tested for binding to human neutrophils. Briefly, cryopreserved human neutrophils were obtained from Asarte Biologics.

[3] = biological target: T4, C5aR1 mutants (N-terminus, ECL1, ECL2, ECL3); assay: Alanine scanning / mutagenesis epitope mapping of C5aR1; format: binding; details: Y11F
Source text: FIG. 5A is a diagram showing the results of alanine scanning mutations of site I interaction with mab 583. The N-terminal amino acid sequence of C5aR1 is listed across the top of the figure. Glycosylation sites are indicated by rectangle boxes. The only natural glycosylation site is at position N5. The other sites were introduced by mutagenesis. Mutations that abolished clone 583 binding are circled. The sulfated tyrosines at positions 11 and 14 are marked with a star sign. FIG. 5B is a diagram showing results of alanine scanning mutations of site I interaction with mab 66. Mutations that abolished clone 66 binding are circled. The sulfated tyrosines at positions 11 and 14 are marked with a star sign.
Ala substitutions of T8 & D10 moderately reduces its affinity while Y11 & D15 abolishes mAb binding. […] N-glycosylation of at N17 or D17P also abolishes mAb binding. N5 glycan is tolerated but a tandem glycosylation (N5 & N17) is not tolerated. mAb core epitopes are T8-G12 but nature of AA present in D15-D18 influence its binding. […] The core epitope appears to be located near T8-G12, with additional contributions from D15-D18.
Clone 66 was previously characterized as a site I binder and its binding is dependent on tyrosine sulfation at positions 11Y and/or 14Y. […] It should be noted that the only the only non-human species to retain clone 66 binding was baboon, which is the only NHP that retains the DYGHY motif.
However, it was unknown if additional contacts were made with ECL1 or ECL3. […] The data is highlighted in FIG. 5C-5E.
The core epitope of clone 11 is from E180-P183; the core epitope of clone 329 is from E180-P184; and the core epitope of clone 336 is from R178-P183. […] The data for clones 11, 329, and 336 is highlighted in FIG. 5F.

Row | antagonism of C5aR1 compared to reference antibodies or to Avacopan (C5aR1) | inhibition of C5aR1 signaling / activity in the GeneBLAzer assay (C5aR1) | Binding to Non-sulfated N-terminal peptide [1] | level of binding to human neutrophils [2] | Molecule | inhibition of C5aR1 mediated Gα signaling in the presence of C5-alpha (C5aR1) | binding to C5aR1 mutant [3]
1 | improved | inhibited in a dose-dependent fashion | − | highest level of neutrophil binding | clone 329: anti-C5aR1 Site II antibody; VH SEQ ID NO: 492, VL SEQ ID NO: 552 (antibody, V domains shown) VH: QVQLQQSGAELTKPGASVKLSCKASGYTFTNYWMHWVKQRPGQGLEWIGYLNPSSGYTKYNQKFKDKATLTADKSSSTAYMQLNSLTYEDSAVYYCTRSGGDNYGNPYYFDRWGQGTTVTVSS VL: DVVMTQTPLSLTVSLGDQASISCRSSQSLVHSNGNTYLHWYLQKPGQSPKFLIYKVSNRFSGVPDRFSGSGSGTDFRLKISRVEAEDLGVYFCSQSTLVPLTFGAGTKLEIK | inhibition of C5aR1 mediated Gα signaling | 
2 |  | highly potent | − | highest level of neutrophil binding | clone 66: anti-C5aR1 Site I antibody; VH SEQ ID NO: 483, VL SEQ ID NO: 543 (antibody, V domains shown) VH: QVQLQQSDAELVKPGASVKISCKASGYTFIDHAIHWVKQRPEQGLEWIGYISPGNGEIKYNEKFKAKATLTADKSSSAAYMQLNSLTSADSAVYFCKRALFYYTGKYQPMDYWGQGTTVTDSS VL: DIVMTQSQKFMSTTAGDRVSITCKASQNVGSAVVWYQQKPGRSPKLLIYSSSIRYTGVPDRFTGSGSGTDFTLTINSVQSEDLADYFCQQYNSFPLTFGAGTKLEIK |  | did not impact binding
3 | improved | highly potent | + |  | clone 583: anti-C5aR1 Site I antibody; VH SEQ ID NO: 536, VL SEQ ID NO: 595 (antibody, V domains shown) VH: EVQLVESGGGLVKPGGSLKLSCAASGFTFNAYAMSWVRQTPEKRLEWVASISTGGNTYCPDSVKDRFTVSRDNVRNILYLQMSSLRSEDTAMYYCTRGYQRFSGFAYWGQGTLVTVS VL: DVVMTQTPLSPPVSLGYQASISCRSSQSLVHSNGNTYLNWYLQKPGQSPKLLIYKVSNRLSGVPDRFSGSGSGTDFTLKISRVETEDLGVYFCSQSTHVPYTFGGGTKLEIK | inhibition of C5aR1 mediated Gα signaling | does not abolish binding
